Assay: soluble on expression in E. coli; label from the status in PepcDB or PDB records

Sequence | soluble on expression in E. coli
MRWVRFFHEVGLEDVPLVGGKNASLGEMIRELSPLGVRVPEGFATTSEAYWHFLEHNGLKEAIARELGELDPEDPKALQRVSRRLRNLILKGEYPQDLREEILEAYRRLSEEAVEEEIPVAVRSSATAEDLLTASFAGQQESFLYVQGEADLLLHVKRAMASLFTARAISYRAHMGFDHLKVALSVGVQRMVRADDAASGVIFTLDPDTGHRGFVYLTAIYGLGENIVQGRVIPDGYYVHKETFREGFRAVVYRRLGAKELTLAFDPREGRLKNRPTPLYLRNRFALRDEEVLLLADWAMKIEDHYSKKRGSPTPMDIEWAKDGPTGELFVLQARPETVHSQKTPVLRVFRLLKRGEVLAEGLAVGEAIAMGRARVLKDPKEMDRFQEGEVLVTETTNPDWEPIMKKAAAIVTERGGRTSHAAIVARELGVPAVVGAVGATRSVPEGEEVTVSCAEGERGVVYRGRLPFEVEEIRPETLPRTRTRILVNVGTPEEALRTSLLPTDGVGLLRMEFVFASHVRVHPLALTRFETLPKEVRRQVEEVTEAYPDKRAYFVETLSQGIGLIAAAFYPRPVLLRFSDFKTNEYARLLGGHLFEPKEENPMLGWRGASRYYHPDYKEGFLLEVAAVRRVREEMGLKNLMVMVPFCRTPEEGEKVLEVMAEGGLRREEGGLEVHVMAEIPSNVLEAEAFAELFDGFSIGSNDLTQLALGLDRDSERVAHLFDERRETVKRLAAMLIEKAHAKGKKVGICGQAPSDYPEFAAFLVERGIDSLSLNPDALLRTVREVAEVERRLGIG | soluble
SLAMAAGANVPLDKANVDLTDKASLQNGAKLFMNYCFACHSTQYQRYERVATDLDIPADLMKENLIFNPEAKIGDLMVNAMPPKQAANWFGAPPPDLTLVARVRGADWLYTYLRSFYVDPSRPFGVNNIVFPSVGMPHVLEELQGIPTPVYGTKMVDGEEVKVVVGTETNGTGELSEGEYDKAVGDLVNFLVYAGDP | not soluble
AIAASALEQFVNNVRQLSAQGQMTQLCELINKSGELLAKNLSHLDTVLGALDIQEHSLGVLAVLFVKFSMPNIPDFETLFSQVQLFISTCNGEHIRYATDTFAGLCHQLTNALVERKQPLRGISILKQAIDKMQMNTNQLTSVHADLCQLCLLAKCFKPAVPFLELDMMDICKENGAYDAKHFLCYYYYGGMIYTGLKNFERALYFFEQAITTPAMAVSHIMLEAYKKYILVSLILHGKVQQLPKYTSQIVGRFIKPLSNAYHELAQIYATNNPAELRALVNKHSETFTRDNNSGLVKQCLSSLYKKNIQRLTKTFLTLSLQDMASRVQLSGPQEAEKYVLHMIEDGEIYASINQKDGMVCFHDNPEKYNNPAMLHKIDQEML | soluble
MGGSHHHHHHGMASALYAKGGKGSAVPSDSQAREKLALYVYEYLLHIGAQKSAQTFLSEIRWEKNITLGEPPGFLHSWWCVFWDLYCAAPDRREACEHSGEAKAFQDYSAAAAPSPVMGSMAPGDTMAAGSMAAGFFQGPPGSQPSPHNPNAPMMGPHGQPFMSPRFPGGPRPTLRMPSQPPAGLPGSQPLLPGAMEPSPRAQGHPSMGGPMQRVTPPRGMASVGPQSYGGGMRPPPNSLAGPGLPAMNMGPGVRGPWASPSGNSIPYSSSSPGSYTGPPGGGGPPGTPIMPSPGDSTNSSENMYTIMNPIGQGAGRANFPLGPGPEGPMAAMSAMEPHHVNGSLGSGDMDGLPKSSPGAVAGLSNAPGTPRDDGEMAAAGTFLHPFPSESYSPGMTMSV | not soluble
MLSIISKYLLIASYICSYLEPRYDASIFSRKTRIIQGRAAYGRRKKKEVNPRYLQPSLFAIERLLAIFQAIFPIQGKAESGSLSALREESLMKANIEVFQNLSELHTLKLIATTMNKNIDYLSPKVRWKVNVPWEIIKEISESVHFNISDYFSD | not soluble
MLVWEELREKALNKIYHDKEIGYLDPDILGFLLAFYRNRNDVYTQSSCSGRITIVDAEMPWDRKNSTIIFKNHLRITEQDLEDVLSKNQVRRLWLIVQGPIIHIYAKNIETGWDILKIAREAGFKHSGILATNQKGVLVELRTGIRMVHLLRESNTERVDKDKIKTLVNVCNEVLARGKQKMNLLKDLLSSSSNNSMELGKNSKLKTPI | soluble
SQELTLSPGPAKLTPTLDPTHRMELILSTSPAELTLDPACQPKLPLDSTCQPEMTFNPGPTELTLDPEHQPEETPAPSLAELTLEPVHRRPELLDACADLINDQWPRSRTSRLHSLGQSSDAFPLCLMLLSPHPTLEAAPVVVGHARLSRVLNQPQSLLVETVVVARALRGRGFGRRLMEGLEVFARARGFRKLHLTTHDQVHFYTHLGYQLGEPVQGLVFTSRRLPATLLNAFPTAPSPRPPRKAPNLTAQAAPRGPKGPPLPPPPPLPECLTISPPVPSGPPSKSLLETQYQNVRGRPIFWMEKDI | soluble
MGSDKIHHHHHHYPEPVLNPESCTSIMVGKKASADGSVMTSHTCDSNYRTWMDIVPSASYDHDTTTTVYTGRMHTEYAEGTRGMIAKGTLPEARSTYQFLNTAYPCLNEKQLGIGETTITGRKALVNKKGMFMIEELQRIALQRCTTARDAIRLMGELIEKYGYGDWGECLTIADPKEVWHFEVFGEGPDKIGGVWAAIRIPDDHVGVSANIPRISKVDPSDKENCMASANVFEVAKRMGFWDGKKPFRFWEAYGGGNYSGELKSFSIREFFILNKLAPSLHLSYDAEELPISVKPEKPVDVTDVMALLSETYEGTEYDMTKNLKVAVKKKDSNETDTIISPVANPWMTTDMVNMLNGLRPDAVKRYRLVAVPQCSYSTVIQLRDWLPDAVGGVVWMAYDNPGQSPRIPIFCGTKDLPACFKVCGQHRYREDAAVWAFRRANKLATVRWGATKDRMKASIAHFTEKGQTELPFVESRYKEILTQQGEEAAKEYLTGYTADFAGATMLRWREMGDSFWTQFERGF | not soluble
MTRTELTQYLADFLRVSAFKDYAPNGLQVEGKAEIRTIVTGVTACQALIDEAIRLKADAILVHHGFFWKSEPEVITGMKQRRIKALLAHDINLFGYHLPLDAHPMLGNNATLGRKLGILDAEAVEDVAQGLVWRGKLDLPMSASEFAAMLAEVLGRDPLHIGESSDEIQYLAWCTGGAQDYIDVAASLGVDAFISGEVSERTYHSAVEQGIHYYAAGHHATERFGIEALGRHLAREFNLVHHFVDITNPVLEHHHHHH | soluble
MAEPVQEELSVLAAIFCRPHEWEVLSRSETDGTVFRIHTKAEGFMDADIPLELVFHLPVNYPSCLPGISINSEQLTRAQCVTVKEKLLEQAESLLSEPMVHELVLWIQQNLRHILSQPETG | soluble
MTESPTTHHGAAPPDSVATPVRPWSEFRLTPAEAAAAAALAARCAQRYDETDGPEFLLDAPVIAHELPKRLRTFMARARLDAWPHALVVRGNPVDDAALGSTPVHWRTARTPGSRPLSFLLMLYAGLLGDVFGWATQQDGRVVTDVLPIKGGEHTLVSSSSRQELGWHTEDAFSPYRADYVGLLSLRNPDGVATTLAGVPLDDLDERTLDVLFQERFLIRPDDSHLQVNNSTAQQGRVEFEGIAQAADRPEPVAILTGHRAAPHLRVDGDFSAPAEGDEEAAAALGTLRKLIDASLYELVLDQGDVAFIDNRRAVHGRRAFQPRYDGRDRWLKRINITRDLHRSRKAWAGDSRVLGQR | soluble
MSNWGDYQLGGLAPPTEPWLAIRPFLQLPHDFKIVFLSIERGLTRKNDFKTVRQLQKWAYCKPRFCGRGQSPELVIPPVGHPPSSSGLIVKIKQMIRSCVRLASQSTNKLLIFSSLSRNSQLYISMSSSDLGRGFKQGRGTGDSGQSSLYNNERRWKDDDTFNALGATDELSSFLGVCGASAQNDGSMSDVVETLTRLQCCLQDVGAHLATPPKNSSERKQKKTAFDIAMVEWINAEIDRYGDALPAIRQFILSGGGMTSAQLQYSRAICRRAERSIVPLMRDEDVDPMALKFLNRMSDLLFVLGRTACMRNKNEELTYLRPDSFTNLKWDRKSLHEKK | not soluble
MQSTATYGSTISSGTSRTLKITEIGGSNLTSGMSPFGGHAASAIRESRTREKKEMSELNDRLASYIEKVRFLEAQNRKMEKDLNLLRGKWGHDSTSVKVMYETELRSAKDLIADSDKERAQLEDQIKKLVEELNNYRNKLHEAERGADVTRKELDNVLGRLGALEAEIELLKRRISLMEESIGHLKRENHRMIDSLHHARIFQAVEQETLNRIDYQNQVQTLLEECDFIRRIHDSEIHDLLAMASRDTTVENREYFKNELSSAIREIRSEYDHVSNTTRTDIESWYKLKVQEIHTQNSRNCLEQNYAREEVKRLRTTLGDMRGKMADLEGRNLLLEKQIEDLNYQMEEDMRSYEQSLNDKDTSINKLRDESKILMVELQMLIDTKQTLDAEIVIYRKMLDGEENRAGLRQLVEQVVKTTSIHQTKEIESLRVLKGETTSHSSYSRSAKGNIAIQEAEPSGKYIVLENISRRDENIGDWKLRRKIAGKREIVFTFPREFTLRAQKSVKIFARGQGVHSPPDSLVYDLEDSFGTGNDVVTTLYNKEGEDRASHSQRASHT | not soluble
EMTDLQSTHKDFLFEIEEVGIKNLVYPVLVDQYQTAGTFSFSTSLTKDEKGINMSRIIESVEKHYDNGIELEFNTLYQVLRTLQTNMKQNAAGVDVSGKWFFDRYSPTTNIKAVGNADVTYGLAIDGDKVTRKELTIEATVTTLCPCSKEISEYSAHNQRGVVTVKTYINKDQNIVDDYKNKILDAMEANASSILYPILKRPDEKRVTERAYENPRFVEDLIRLIAADLVEFDWLDGFDIECRNEESIHQHDAFAKLKYRK | not soluble
HRTRIEDESIHKLVLDAHRCIHQHLDVLHQQLHQHCEECDLSNIDDAGLEQRLNEWRDEDDSSARMVLQQLHLIYRMLPELHSLASKFAVRVN | not soluble
MGSDKIHHHHHHEPYSEIIEEDYVPTEADEIALLATTYSQLRFVMDWYGLFDLQEESGDVIVTPTRPNGWDDGGTYKQMHKHTWDNQQGQPQSIWDYCYKGIANANKILKRADEGFFTEESKPKVVAEVKGVRALWYSILCDTHGNIPIQTSFSEEVPVQSTRKQVFDFIINELKEVMPNLPTEVNKSTYGRLTQWGAKCLMARMYLNAGVYTGTPMWNECLEQCNDIINSGLFSLETNYTDIFKTENSGCVETIFAIPYDEVYNEGDNNGPVFGAHMKFLSSNSRKVFNMQTTPWGGSAANPQFINSYDPDDMRLKYTWLQGDQYSPDGVLITTFPNKLPSIYKTDTDDGYRVGKYEIKVGAKSLLSNDFPYFRYTEVLLMKAECLLRLGQNETEAAHIVSQIRERAFRESAHPEKATVDAAWLKGDTHINYGTLDEKGQIDDAGNTEVVELGGLYDEWGWEFAAEARRRTDMIRFGTYQKKSWFNHTPTANDLNGNSILFPIHLDHLNTNPNLQQNPGYAGK | not soluble
MKFKKLLSRIIIATMITFTGTLSYQAIEQTHISHAAHNYYGKKQCTWWAFKRRAQLGKPVSNRWGNAKNWYSNARRSGYATGHKPRKYAVMQSTRGYYGHVAVVEKVYKNGKIKISEYNYNVPLGYGTRIISKSSARNYNYIYLEHHHHHH | not soluble
ASMTGGQQMGRGSDSKPPYSYAQLIVQAITMAPDKQLTLNGIYTHITKNYPYYRTADKGWQNSIRHNLSLNRYFIKVPRSQEEPGKGSFWRIDPASESKLIEQAFRKRRPR | soluble
MLYLNQKPEYSKYDIGDYTYSKVGPTIFSWNDETKLKIGKFCSLGEEVVFLLGGEHRADWITTYPFNALFGEGAHITGHPSSKGDIVVGNDVWIGYQSCISSGVTIGNGAIIGARSVITKDVPPYAIVAGNPAKFVRYRFPQETIDKLESLAWWDWDISVIKGAIPLLLSNKIDEFFTSPEKEST | not soluble
